According to PMC9565801 (Science Advances, 2022):

Molecular target: the molecule itself
Assay: crystal structure

Protein | stoichiometry N
ketosteroid isomerase (KSI) Y32F/Y57F from Pseudomonas putida (enzyme) MNLPTAQEVQGLMARYIELVDVGDIEAIVQMFADDATVEDPFGQPPIHGREQIAAFFRQGLGGGKVRACLTGPVRASHNGCGAMPFRVEMVWNGQPCALDVIDVMRFDEHGRIQTMQAYWSEVNLSVREPQ | 2
ketosteroid isomerase (KSI) Y57F from Pseudomonas putida (enzyme) MNLPTAQEVQGLMARYIELVDVGDIEAIVQMYADDATVEDPFGQPPIHGREQIAAFFRQGLGGGKVRACLTGPVRASHNGCGAMPFRVEMVWNGQPCALDVIDVMRFDEHGRIQTMQAYWSEVNLSVREPQ | 2
